Key:
[1] = target: JAK3 JH1 domain (UniProt P52333 822-1111); assay: SPR
[2] = target: T1, TYK2 JH1 domain (UniProt P29597 897-1176); assay: SPR
T1 chain: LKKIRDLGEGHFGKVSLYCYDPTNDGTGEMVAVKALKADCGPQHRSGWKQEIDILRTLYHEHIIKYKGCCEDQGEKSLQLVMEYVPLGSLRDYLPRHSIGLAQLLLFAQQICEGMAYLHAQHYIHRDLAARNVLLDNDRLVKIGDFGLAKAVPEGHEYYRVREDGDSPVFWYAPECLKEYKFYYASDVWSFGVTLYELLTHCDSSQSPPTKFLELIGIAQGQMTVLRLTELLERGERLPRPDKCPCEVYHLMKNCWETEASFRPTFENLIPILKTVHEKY

Sequence of JAK3 JH1 domain (P52333 822-1111): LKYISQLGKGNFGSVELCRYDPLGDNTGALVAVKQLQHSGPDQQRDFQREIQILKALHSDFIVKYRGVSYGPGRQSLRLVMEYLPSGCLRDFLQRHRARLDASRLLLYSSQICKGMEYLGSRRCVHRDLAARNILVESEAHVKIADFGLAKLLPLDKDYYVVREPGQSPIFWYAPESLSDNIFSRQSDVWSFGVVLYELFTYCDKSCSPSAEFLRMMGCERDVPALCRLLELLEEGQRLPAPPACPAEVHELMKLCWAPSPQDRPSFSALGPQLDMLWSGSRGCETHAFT

Kd [1]: 2100 nM
Kd [2]: 1200 nM
B1: SOCS5 175–244 fragment (domain or fragment)
chain: RSLRQRLQDTVGLCFPMRTYSKQSKPLFSNKRKIHLSELMLEKCPFPAGSDLAQKWHLIKQHTAPVSPHS
